In US20200262877A1, “ION CHANNEL-BINDING PEPTIDES AND METHODS OF USE THEREOF” (priority 2017, published 2020):

Key:
GABA = assay: Ion channel panel (IonWorks Barracuda): GABA; format: cell-based; details: 100% = no change, <100% = inhibition
How it was run: (§1)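 Transfected HEK293 or CHO cells were exposed for at least 5 min to peptides at 200 nM and 20 μM final, tested in duplicate, in HEPES-buffered physiological saline. Activation was taken as peptide-plus-agonist current over control current ×100, and inhibition as 1 minus that ratio ×100. Each channel's control was its own reference compound.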

NR2B = molecular target: T1, NR2B (Homo sapiens, UniProt Q13224); assay: Ion channel panel (IonWorks Barracuda): NR2B; format: cell-based; details: 100% = no change, <100% = inhibition
T1 construct: host or cells: HEK293 or CHO
How it was run: as §1

Cav2.1 = molecular target: T2, Cav2.1 (Homo sapiens, UniProt O00555); assay: cell-based; details: 100% = no change, <100% = inhibition
T2 construct: host or cells: HEK293 or CHO
How it was run: as §1

Cav2.2 = molecular target: T3, Cav2.2 (Homo sapiens, UniProt Q00975); assay: cell-based; details: 100% = no change, <100% = inhibition
T3 construct: host or cells: HEK293 or CHO
How it was run: as §1

Kv2.1 = molecular target: T4, Kv2.1 (Homo sapiens, UniProt Q14721); assay: cell-based; details: 100% = no change, <100% = inhibition
T4 construct: host or cells: HEK293 or CHO
How it was run: as §1

Kv1.2 = molecular target: T5, Kv1.2 (Homo sapiens, UniProt P16389); assay: cell-based; format: cell-based; details: 100% = no change, <100% = inhibition
T5 construct: host or cells: HEK293 or CHO
How it was run: as §1

Kv1.1 = molecular target: T6, Kv1.1 (Homo sapiens, UniProt Q09470); assay: cell-based; format: cell-based; details: 100% = no change, <100% = inhibition
T6 construct: host or cells: HEK293 or CHO
How it was run: as §1

Kv1.3 = molecular target: T7, Kv1.3 (Homo sapiens, UniProt P22001); assay: cell-based; format: cell-based; details: 100% = no change, <100% = inhibition
T7 construct: host or cells: HEK293 or CHO
How it was run: as §1

Nav1.7 = molecular target: T8, Nav1.7 (Homo sapiens, UniProt Q15858); assay: cell-based; format: cell-based; details: 100% = no change; for Activity of Nav1.7 with peptide, expressed as a percentage of the reference compound: peptide at 0.2 μM; for Activity of Nav1.7 with peptide (percentage of the reference compound): peptide at 20 μM
T8 construct: host or cells: HEK293 or CHO

α3β4 = molecular target: T9, α3β4 (Homo sapiens, UniProt P30926+P32297); assay: Ion channel panel (IonWorks Barracuda): α3β4; format: cell-based; details: 100% = no change, <100% = inhibition
T9 construct: host or cells: HEK293 or CHO
How it was run: as §1

TRPA1 = molecular target: T10, TRPA1 (Homo sapiens, UniProt O75762); assay: Ion channel panel (IonWorks Barracuda): TRPA1; format: cell-based; details: 100% = no change, <100% = inhibition
T10 construct: host or cells: HEK293 or CHO
How it was run: as §1

5HT3a = molecular target: T11, 5HT3a (Homo sapiens, UniProt P46098); assay: Ion channel panel (IonWorks Barracuda): 5HT3a; format: cell-based
T11 construct: host or cells: HEK293 or CHO
T11 sequence (P46098 whole entry, looked up): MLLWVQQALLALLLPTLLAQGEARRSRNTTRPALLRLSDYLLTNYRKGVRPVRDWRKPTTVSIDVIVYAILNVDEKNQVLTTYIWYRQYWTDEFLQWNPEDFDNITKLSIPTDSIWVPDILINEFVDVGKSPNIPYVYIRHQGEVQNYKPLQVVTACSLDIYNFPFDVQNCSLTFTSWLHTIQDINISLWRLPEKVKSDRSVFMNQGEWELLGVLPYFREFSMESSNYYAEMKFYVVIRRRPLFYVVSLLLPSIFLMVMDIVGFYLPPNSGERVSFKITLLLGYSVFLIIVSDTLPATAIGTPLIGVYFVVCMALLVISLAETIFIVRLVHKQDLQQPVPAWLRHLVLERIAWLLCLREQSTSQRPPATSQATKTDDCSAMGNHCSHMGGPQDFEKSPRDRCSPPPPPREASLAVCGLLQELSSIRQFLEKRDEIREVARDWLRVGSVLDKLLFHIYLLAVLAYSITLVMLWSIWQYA
How it was run: as §1

TRPV1 = molecular target: T12, TRPV1 (Homo sapiens, UniProt Q8NER1); assay: Ion channel panel (IonWorks Barracuda): TRPV1; format: cell-based; details: 100% = no change, <100% = inhibition
T12 construct: host or cells: HEK293 or CHO
How it was run: as §1

Nav1.5 = Nav1.5 (Homo sapiens, UniProt Q14524); assay: in vitro; details: 100% = no change; for Activity of Nav1.5 with peptide, expressed as a percentage of the reference compound: peptide at 0.2 μM; for Activity of Nav1.5 with peptide (percentage of the reference compound): peptide at 20 μM
How it was run: as §1

hERG = hERG (Homo sapiens, UniProt Q12809); assay: in vitro; details: 100% = no change, <100% = inhibition
How it was run: as §1

α4β2 = molecular target: T13, α4β2 (Homo sapiens, UniProt P17787+P43681); assay: Ion channel panel (IonWorks Barracuda): α4β2; format: cell-based; details: 100% = no change, <100% = inhibition
T13 construct: host or cells: HEK293 or CHO
How it was run: as §1

NR2A = molecular target: T14, NR2A (Homo sapiens, UniProt Q12879); assay: Ion channel panel (IonWorks Barracuda): NR2A; format: cell-based; details: 100% = no change, <100% = inhibition
T14 construct: host or cells: HEK293 or CHO
How it was run: as §1

Kir2.1 = molecular target: T15, Kir2.1 (Homo sapiens, UniProt P63252); assay: Ion channel panel (IonWorks Barracuda): Kir2.1; format: cell-based; details: 100% = no change, <100% = inhibition
T15 construct: host or cells: HEK293 or CHO
How it was run: as §1

[1] = first of two Nav1.7 columns (probably TP1)
[2] = second of two Nav1.7 columns (probably TP2)
[3] = first of two Nav1.5 columns (probably TP1)
[4] = second of two Nav1.5 columns (probably TP2)

T8 sequence (Q15858 whole entry): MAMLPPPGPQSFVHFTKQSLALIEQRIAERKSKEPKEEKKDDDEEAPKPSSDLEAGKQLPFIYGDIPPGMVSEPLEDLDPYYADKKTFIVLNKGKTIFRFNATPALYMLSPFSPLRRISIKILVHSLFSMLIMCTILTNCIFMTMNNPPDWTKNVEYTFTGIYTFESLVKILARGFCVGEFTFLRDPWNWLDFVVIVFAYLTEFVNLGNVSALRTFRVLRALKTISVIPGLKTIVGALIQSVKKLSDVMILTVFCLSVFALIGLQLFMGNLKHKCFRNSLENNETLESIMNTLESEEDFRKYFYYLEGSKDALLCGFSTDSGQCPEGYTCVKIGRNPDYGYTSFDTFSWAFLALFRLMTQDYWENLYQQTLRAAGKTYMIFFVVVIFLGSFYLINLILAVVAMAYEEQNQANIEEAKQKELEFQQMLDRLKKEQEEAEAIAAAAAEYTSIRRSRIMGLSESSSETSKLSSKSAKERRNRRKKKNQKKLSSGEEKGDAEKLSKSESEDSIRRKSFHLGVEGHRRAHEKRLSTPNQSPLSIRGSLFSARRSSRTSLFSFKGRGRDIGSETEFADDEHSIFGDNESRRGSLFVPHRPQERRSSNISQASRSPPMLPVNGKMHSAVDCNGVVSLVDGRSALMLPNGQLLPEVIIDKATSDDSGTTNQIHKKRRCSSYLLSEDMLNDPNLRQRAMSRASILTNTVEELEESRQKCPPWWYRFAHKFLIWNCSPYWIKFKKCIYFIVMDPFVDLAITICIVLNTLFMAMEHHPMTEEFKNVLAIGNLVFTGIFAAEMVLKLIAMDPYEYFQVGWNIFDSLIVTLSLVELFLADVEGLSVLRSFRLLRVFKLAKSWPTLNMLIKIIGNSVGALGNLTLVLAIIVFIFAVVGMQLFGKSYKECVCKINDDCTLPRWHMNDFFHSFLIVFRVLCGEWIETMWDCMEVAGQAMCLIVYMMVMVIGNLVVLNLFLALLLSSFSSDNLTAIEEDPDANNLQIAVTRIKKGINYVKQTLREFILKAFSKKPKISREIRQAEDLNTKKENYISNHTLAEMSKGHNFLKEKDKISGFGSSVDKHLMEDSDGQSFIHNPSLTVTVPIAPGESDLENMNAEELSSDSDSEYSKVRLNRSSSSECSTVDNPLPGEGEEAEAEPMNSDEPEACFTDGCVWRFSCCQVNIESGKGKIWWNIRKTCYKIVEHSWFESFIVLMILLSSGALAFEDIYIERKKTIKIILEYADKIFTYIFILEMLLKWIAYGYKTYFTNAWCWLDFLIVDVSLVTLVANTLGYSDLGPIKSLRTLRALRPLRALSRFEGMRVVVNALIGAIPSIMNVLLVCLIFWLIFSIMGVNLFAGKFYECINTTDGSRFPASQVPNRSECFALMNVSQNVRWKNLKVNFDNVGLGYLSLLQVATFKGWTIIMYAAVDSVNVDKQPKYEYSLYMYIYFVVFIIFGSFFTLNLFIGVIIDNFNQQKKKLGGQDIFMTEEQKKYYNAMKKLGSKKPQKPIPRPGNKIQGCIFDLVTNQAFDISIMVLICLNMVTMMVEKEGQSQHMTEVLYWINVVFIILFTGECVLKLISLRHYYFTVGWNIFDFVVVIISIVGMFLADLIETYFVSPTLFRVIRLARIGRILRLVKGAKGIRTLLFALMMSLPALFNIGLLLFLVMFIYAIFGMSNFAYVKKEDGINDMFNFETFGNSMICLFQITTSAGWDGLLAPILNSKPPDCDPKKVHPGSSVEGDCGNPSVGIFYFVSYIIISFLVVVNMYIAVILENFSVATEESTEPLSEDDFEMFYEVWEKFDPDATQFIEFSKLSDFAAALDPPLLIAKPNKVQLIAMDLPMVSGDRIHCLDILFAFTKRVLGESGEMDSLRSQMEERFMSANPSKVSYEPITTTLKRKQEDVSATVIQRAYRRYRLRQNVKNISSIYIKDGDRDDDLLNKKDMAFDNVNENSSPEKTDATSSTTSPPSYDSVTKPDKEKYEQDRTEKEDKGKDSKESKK
Sequence of Nav1.5 (Q14524 whole entry): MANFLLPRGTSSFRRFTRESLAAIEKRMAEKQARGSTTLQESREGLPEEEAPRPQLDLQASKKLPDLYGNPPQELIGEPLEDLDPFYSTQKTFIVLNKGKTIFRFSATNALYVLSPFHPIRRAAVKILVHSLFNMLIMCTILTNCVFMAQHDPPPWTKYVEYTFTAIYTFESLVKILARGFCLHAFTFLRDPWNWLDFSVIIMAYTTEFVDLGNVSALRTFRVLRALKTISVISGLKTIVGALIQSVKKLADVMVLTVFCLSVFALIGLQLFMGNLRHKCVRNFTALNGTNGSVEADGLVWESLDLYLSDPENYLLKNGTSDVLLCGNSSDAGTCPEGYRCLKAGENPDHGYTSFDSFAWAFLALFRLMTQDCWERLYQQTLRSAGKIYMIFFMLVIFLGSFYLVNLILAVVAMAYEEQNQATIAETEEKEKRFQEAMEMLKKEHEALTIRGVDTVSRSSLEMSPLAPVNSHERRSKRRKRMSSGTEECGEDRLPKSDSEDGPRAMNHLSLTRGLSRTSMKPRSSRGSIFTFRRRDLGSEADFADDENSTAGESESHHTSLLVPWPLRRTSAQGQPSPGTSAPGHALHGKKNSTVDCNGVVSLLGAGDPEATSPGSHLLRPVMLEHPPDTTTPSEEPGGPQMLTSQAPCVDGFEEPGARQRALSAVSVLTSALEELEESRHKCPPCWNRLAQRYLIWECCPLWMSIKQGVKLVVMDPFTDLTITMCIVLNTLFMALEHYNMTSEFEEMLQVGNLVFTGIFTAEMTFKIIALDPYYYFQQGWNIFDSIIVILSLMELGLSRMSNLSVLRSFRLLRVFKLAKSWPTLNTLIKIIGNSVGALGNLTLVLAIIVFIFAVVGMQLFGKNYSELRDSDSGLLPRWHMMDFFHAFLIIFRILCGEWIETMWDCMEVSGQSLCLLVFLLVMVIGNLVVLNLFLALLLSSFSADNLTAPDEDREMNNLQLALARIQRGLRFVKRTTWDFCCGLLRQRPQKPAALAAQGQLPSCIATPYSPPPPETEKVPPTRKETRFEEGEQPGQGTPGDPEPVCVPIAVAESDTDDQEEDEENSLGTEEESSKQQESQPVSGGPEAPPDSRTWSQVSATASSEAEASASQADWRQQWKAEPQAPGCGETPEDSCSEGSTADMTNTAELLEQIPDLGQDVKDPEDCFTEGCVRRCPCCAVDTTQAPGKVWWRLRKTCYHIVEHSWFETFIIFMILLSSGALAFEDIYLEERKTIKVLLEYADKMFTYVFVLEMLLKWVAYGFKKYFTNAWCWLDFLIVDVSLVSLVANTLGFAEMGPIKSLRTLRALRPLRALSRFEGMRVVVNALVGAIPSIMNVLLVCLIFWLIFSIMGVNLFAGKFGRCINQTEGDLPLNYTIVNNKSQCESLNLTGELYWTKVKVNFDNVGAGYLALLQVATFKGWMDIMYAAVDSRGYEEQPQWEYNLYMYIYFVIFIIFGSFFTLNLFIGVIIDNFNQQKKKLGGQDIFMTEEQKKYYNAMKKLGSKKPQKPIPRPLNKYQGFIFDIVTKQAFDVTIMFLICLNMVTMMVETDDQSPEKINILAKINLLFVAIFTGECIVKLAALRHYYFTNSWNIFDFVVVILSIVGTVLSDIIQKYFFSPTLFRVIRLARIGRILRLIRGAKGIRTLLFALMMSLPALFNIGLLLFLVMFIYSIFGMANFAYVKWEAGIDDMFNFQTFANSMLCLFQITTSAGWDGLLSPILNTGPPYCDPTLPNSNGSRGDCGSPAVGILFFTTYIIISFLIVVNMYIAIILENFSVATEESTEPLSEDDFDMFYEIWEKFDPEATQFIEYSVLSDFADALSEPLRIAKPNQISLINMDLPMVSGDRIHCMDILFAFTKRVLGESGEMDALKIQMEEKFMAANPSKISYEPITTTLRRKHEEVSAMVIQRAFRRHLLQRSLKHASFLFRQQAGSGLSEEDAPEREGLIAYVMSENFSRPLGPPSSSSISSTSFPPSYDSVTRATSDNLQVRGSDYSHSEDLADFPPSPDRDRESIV
Sequence of hERG (Q12809 whole entry): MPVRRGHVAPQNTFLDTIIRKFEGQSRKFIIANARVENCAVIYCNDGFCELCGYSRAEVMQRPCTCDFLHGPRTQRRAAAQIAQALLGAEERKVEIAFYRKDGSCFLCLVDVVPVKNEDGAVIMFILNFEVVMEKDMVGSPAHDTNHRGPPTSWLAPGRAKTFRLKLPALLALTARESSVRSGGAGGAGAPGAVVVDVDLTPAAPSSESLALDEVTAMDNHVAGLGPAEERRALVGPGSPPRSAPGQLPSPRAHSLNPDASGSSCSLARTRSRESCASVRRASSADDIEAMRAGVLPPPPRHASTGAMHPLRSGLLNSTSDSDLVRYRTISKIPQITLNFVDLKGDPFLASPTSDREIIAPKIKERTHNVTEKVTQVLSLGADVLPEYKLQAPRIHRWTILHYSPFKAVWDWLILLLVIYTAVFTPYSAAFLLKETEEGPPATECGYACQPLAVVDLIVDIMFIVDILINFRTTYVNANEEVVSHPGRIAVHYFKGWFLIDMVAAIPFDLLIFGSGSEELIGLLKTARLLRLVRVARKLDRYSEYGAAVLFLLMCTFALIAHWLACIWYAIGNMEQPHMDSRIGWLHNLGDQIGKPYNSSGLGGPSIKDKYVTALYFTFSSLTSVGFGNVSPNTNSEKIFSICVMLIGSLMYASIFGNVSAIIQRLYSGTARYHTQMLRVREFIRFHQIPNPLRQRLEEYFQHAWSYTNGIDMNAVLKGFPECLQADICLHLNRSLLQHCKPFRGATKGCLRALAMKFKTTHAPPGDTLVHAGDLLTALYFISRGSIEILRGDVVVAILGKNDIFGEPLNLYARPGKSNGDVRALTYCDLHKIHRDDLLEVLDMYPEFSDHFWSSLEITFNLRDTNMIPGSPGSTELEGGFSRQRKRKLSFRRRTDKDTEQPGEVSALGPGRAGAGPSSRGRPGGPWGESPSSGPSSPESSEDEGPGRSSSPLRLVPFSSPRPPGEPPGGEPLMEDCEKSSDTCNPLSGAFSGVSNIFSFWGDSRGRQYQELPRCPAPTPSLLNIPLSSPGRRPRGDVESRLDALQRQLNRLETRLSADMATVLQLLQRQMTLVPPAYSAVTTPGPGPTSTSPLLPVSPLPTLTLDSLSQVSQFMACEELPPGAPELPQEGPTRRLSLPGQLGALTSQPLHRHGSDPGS

18 (GSNCAGYMRECKEKLCCSGYVCSSRWKWCVLPAPWRR) [compound 18]
Activity of GABA with peptide, expressed as a percentage of the reference compound (GABA; peptide at 0.2 μM): 113% | Activity of GABA with peptide (percentage of the reference compound) (GABA; peptide at 20 μM): 106% | Activity of NR2B with peptide, expressed as a percentage of the reference compound (NR2B; peptide at 0.2 μM): 107% | Activity of NR2B with peptide (percentage of the reference compound) (NR2B; peptide at 20 μM): 78% | Activity of Cav2.1 with peptide, expressed as a percentage of the reference compound (Cav2.1; peptide at 0.2 μM): 97% | Activity of Cav2.1 with peptide (percentage of the reference compound) (Cav2.1; peptide at 20 μM): 98% | Activity of Cav2.2 with peptide, expressed as a percentage of the reference compound (Cav2.2; peptide at 0.2 μM): 132% | Activity of Cav2.2 with peptide (percentage of the reference compound) (Cav2.2; peptide at 20 μM): 124% | Activity of Kv2.1 with peptide, expressed as a percentage of the reference compound (Kv2.1; peptide at 0.2 μM): 93% | Activity of Kv2.1 with peptide (percentage of the reference compound) (Kv2.1; peptide at 20 μM): 65% | Activity of Kv1.2 with peptide, expressed as a percentage of the reference compound (Kv1.2; peptide at 0.2 μM): 67% | Activity of Kv1.2 with peptide (percentage of the reference compound) (Kv1.2; peptide at 20 μM): 30% | Activity of Kv1.1 with peptide, expressed as a percentage of the reference compound (Kv1.1; peptide at 0.2 μM): 98% | Activity of Kv1.1 with peptide (percentage of the reference compound) (Kv1.1; peptide at 20 μM): 78% | Activity of Kv1.3 with peptide, expressed as a percentage of the reference compound (Kv1.3; peptide at 0.2 μM): 87% | Activity of Kv1.3 with peptide (percentage of the reference compound) (Kv1.3; peptide at 20 μM): 7% | Activity of Nav1.7 with peptide, expressed as a percentage of the reference compound (Nav1.7; [1]): 85% | Activity of Nav1.7 with peptide, expressed as a percentage of the reference compound (Nav1.7; [2]): 84% | Activity of Nav1.7 with peptide (percentage of the reference compound) (Nav1.7; [1]): 43% | Activity of Nav1.7 with peptide (percentage of the reference compound) (Nav1.7; [2]): 55% | Activity of a3b4 with peptide, expressed as a percentage of the reference compound (α3β4; peptide at 0.2 μM): 110% | Activity of a3b4 with peptide (percentage of the reference compound) (α3β4; peptide at 20 μM): 89% | Activity of TRPA1 with peptide, expressed as a percentage of the reference compound (TRPA1; peptide at 0.2 μM): 130% | Activity of TRPA1 with peptide (percentage of the reference compound) (TRPA1; peptide at 20 μM): 89% | Activity of 5HT3a with peptide (percentage of the reference compound) (5HT3a): 79% | Activity of 5HT3a with peptide, expressed as a percentage of the reference compound (5HT3a): 95% | Activity of TRPV1 with peptide, expressed as a percentage of the reference compound (TRPV1; peptide at 0.2 μM): 93% | Activity of TRPV1 with peptide (percentage of the reference compound) (TRPV1; peptide at 20 μM): 61% | Activity of Nav1.5 with peptide, expressed as a percentage of the reference compound (Nav1.5; [3]): 104% | Activity of Nav1.5 with peptide, expressed as a percentage of the reference compound (Nav1.5; [4]): 106% | Activity of Nav1.5 with peptide (percentage of the reference compound) (Nav1.5; [3]): 87% | Activity of Nav1.5 with peptide (percentage of the reference compound) (Nav1.5; [4]): 112% | Activity of hERG with peptide, expressed as a percentage of the reference compound (hERG; peptide at 0.2 μM): 98% | Activity of hERG with peptide (percentage of the reference compound) (hERG; peptide at 20 μM): 62% | Activity of a4b2 with peptide, expressed as a percentage of the reference compound (α4β2; peptide at 0.2 μM): 109% | Activity of a4b2 with peptide (percentage of the reference compound) (α4β2; peptide at 20 μM): 92% | Activity of NR2A with peptide, expressed as a percentage of the reference compound (NR2A; peptide at 0.2 μM): 98% | Activity of NR2A with peptide (percentage of the reference compound) (NR2A; peptide at 20 μM): 79% | Activity of Kir2.1 with peptide, expressed as a percentage of the reference compound (Kir2.1; peptide at 0.2 μM): 104% | Activity of Kir2.1 with peptide (percentage of the reference compound) (Kir2.1; peptide at 20 μM): 93%
